Data published in the supplement of paper PMC12042874.
± gives the uncertainty stated by the source.

Assay: amyloid nucleation score (Sup35N fusion, yeast selection) (log enrichment); library NNK2; higher = more nucleation; inactive = no reads after selection
Summary of the method: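 Peptides of 20 random codons, each fused to Sup35N, were expressed in psi-negative yeast. Cells were induced with 100 μM copper sulfate for 24 hours and grown 7 days at 30°C on medium lacking adenine and uracil, and plasmid inserts before and after selection were Illumina-sequenced. Nucleation scores are DiMSum log enrichments of output over input reads, centred on the mode score of non-aggregating sequences, and sequences under 100 input reads were excluded.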

Substance | amyloid nucleation score
LAQMQR | -0.169 ± 0.8
CFCPMLLLYIVRP | 7.483 ± 0.023
TIGANPRVLDG | 0.316 ± 0.39
FIDTLNYDWDIVLFWFLGEN | 0.021 ± 0.51
LCGAKRFMRVQAFEQNVYSR | 0.401 ± 0.37
SFDSVELARGTASCRVAYFV | 0.731 ± 0.35
YSRWRSLCTGAAFPGFWLNT | 1.96 ± 0.14
TCYWRGLAGYR | 3.28 ± 0.14
TLAFCFFLTKLSVQCFLYPP | 0.241 ± 0.8
KECVHHDHFYG | inactive
AHSKHPGTYGQFMSEQSGEA | 0.767 ± 0.51
FARKMIGLPLLYLLGVMFGR | -0.877 ± 0.78
RKVLWKSDTSSLLNEWSIAH | -0.178 ± 0.49
GIIRSWNIRPLEMPKE | 0.176 ± 0.27
CNMFDCCK | 0.175 ± 0.42
ETVGYN | 0.284 ± 1.1
YILRMLLRVLSVCVCSLQRS | -0.091 ± 0.79
VVVHSTLLGFWIIF | inactive
MSSYDF | inactive
HLRQWDEYLETGCVN | 0.32 ± 0.33
SGFNGFSLNHFQNQFKTPRS | -0.356 ± 1.1
TSESSV | -0.36 ± 0.64
SLLHPFLTVGVCMCRYGVNI | 1.81 ± 0.083
FKIVALTTVNIVLRDSWCNP | 6.199 ± 0.061
NVPLFRSVSGDPVHHPLI | 2.41 ± 0.15
HSNALCLRFVLLPLSGIDIM | -0.295 ± 0.54

Substance | amyloid nucleation score
ALSSFT | -1.28 ± 0.78
VAMSCGRSYLKCLMACGLHM | -0.053 ± 1
HLNNCALGTDLILNALDVS | -0.426 ± 0.54
LWHESC | -0.119 ± 0.33
PCSANWRLYIANISGSFPMR | 5.34 ± 0.083
NTLSRYHFNGVRVYCEMTAL | inactive
CFKFRYRLGGW | 4.93 ± 0.05
RMRLPPFPIDWSDAYLFWHS | 1.28 ± 0.38
SESGR | 1.74 ± 0.21
AGMGRSVWSKRFRDISRVSS | 0.511 ± 0.56
CRLEGKTSVPCDNRGLGWAR | 0.938 ± 0.47
MSSCLRL | 4.51 ± 0.056
SLPFTLLNKSAHWNSLWFPG | -1.24 ± 1.1
LGMCYWGLVTCH | 0.749 ± 0.38
WVCHVNMRSEYMDIIMEGTN | inactive
AFWLL | 1.81 ± 0.093
SWCVNVLAYSEKAFSRCVVM | 8.583 ± 0.048
FTLLSMNRSGFIIRVPDAV | 0.035 ± 0.24
VPICLSS | inactive
RIFLYND | inactive
VTNVSQISNSRNVMERSIMF | -1.2 ± 0.41
GKFCIFASMADLMEW | -0.491 ± 0.42
YMLLRSYVFTKLLRLHCYRN | inactive
VWGFVSGIESMCGSKAPNGG | -0.158 ± 0.33
EVILTLIRYNV | 4.21 ± 0.1
KLGLVKMSPYIMFTHVCDGW | -0.217 ± 0.23

Substance | amyloid nucleation score
TYALVTRLFCFLVSEHWVTL | -0.047 ± 0.26
AILSNVEVLYTRFRIKSCKL | -0.435 ± 0.34
GCGVL | -0.91 ± 0.55
SERRGIIGSGLRDGRVLFTT | inactive
PEFITEFQALASFEYVMLRF | -1.23 ± 0.41
TIIIREQSKPFPCLE | 0.931 ± 0.74
LYVLVLMVCYRYGGKF | 4.38 ± 0.063
IDLSLNLGVRGVRQDETLFA | inactive
IVLLAVI | 0.539 ± 0.81
PQGDSMTVCFQLVT | 1.28 ± 0.61
IDCSFSFFVSPFRHPHSQED | 4.87 ± 0.092
HRRVCLDAYTFTFLNMVLAW | -0.187 ± 0.65
DSVFNMTIADECFG | -1.06 ± 1.1
RKRVVSQEPCL | -0.996 ± 0.78
DTGRFVMLVVGR | 0.304 ± 0.54
ETAQLWYSRVACCKKRVVYG | 0.594 ± 0.47
IAYNMRNGH | 0.949 ± 0.74
KLRGIPYRF | inactive
TPLDIICEIMNFIYNTVFRL | -0.501 ± 1.1
SFRRSPELSQEFTRGYDSYR | -0.276 ± 0.76
WYIKF | 1.54 ± 0.3
HLCGGHGLVFFWGFVTMKCG | 0.369 ± 0.8
GLMRVRYESHRMKAGSLVSR | 1.89 ± 0.36
TSGQHD | -0.133 ± 0.61
REFLMD | inactive
AFSLCFRYYLPRVNASG | -0.147 ± 1.1

Substance | amyloid nucleation score
THSHTSCKDASSEMRSPCNV | 0.264 ± 0.33
DNMSNYSGACLSNYL | -0.292 ± 0.56
FCMFSNIYVFPSTIF | 7.583 ± 0.02
NRSMSISGMTGYEQLKRHGT | 0.023 ± 0.27
LMDERGMTKMTYFVYLLKKA | 0.661 ± 0.23
WSFHRR | -0.552 ± 0.36
SVRGRNDESAMLTLQRELRY | -0.343 ± 1.1
IGYVEAWWVFLVGSDAVRAP | -0.018 ± 1.1
SCRVRFNRSCAPGNSQIGMS | 8.674 ± 0.058
SMILT | -1.11 ± 1.1
ADCVSICVSYRRFHLAKYR | 2.73 ± 0.11
GQWGETY | 0.476 ± 0.25
RCKYWNTKCTTIYRGRVSYL | -0.733 ± 0.29
MTIHVSTELAALSSGL | 1.11 ± 0.17
DERGMCSLWSRCEYV | -0.287 ± 0.29
YFNPI | 5.196 ± 0.047
RFCWICCHVQFFYELHITHA | inactive
VKVHSIESGGLRPWCVGASV | 0.747 ± 0.3
NLKMDLLRFLHMSLRYISTR | -0.36 ± 0.64
LQSKAGEPLGRDMRLFLVPV | 0.698 ± 0.58
ICQCGYFWF | 2.8 ± 0.15
SIWYSNYNNSRKIPSAYKKW | 2.34 ± 0.071
QRQDDSVFHDVSHLGQGSSK | 9.066 ± 0.078
LMMKKTGCTQFISRYLVRIY | -1.42 ± 1
AYDIHTIREMFRSSSRLYGW | 5.854 ± 0.033
GVDFTWDRGCIGGRGCSSRY | 5.956 ± 0.054

Substance | amyloid nucleation score
TIVWLGRPLYTGFKNTKRGH | inactive
LYFSSTYCLLVGKTDQIDCH | inactive
VYEVNGLSAGRMMSICNRRN | -0.467 ± 0.44
VVVIGNFVSPRDIRFISMYT | 8.118 ± 0.047
LKPPLVAHHGNILCGFLGDG | -1.39 ± 0.78
ARYAVDTSITNECSLALYTS | 1.23 ± 0.24
KNDLPRKKVL | 0.128 ± 0.4
QSAFSKF | inactive
FISMGQGRPEFLWVFVDVGD | 0.092 ± 1.1
LKLRAPRVMSGIVDSLMWLT | -0.32 ± 0.63
VFMCVGFLLYHMNSELGPRG | 2.88 ± 0.087
YYTCTLSRWRQSAYLGGRLR | 0.284 ± 0.26
RYKSFMVQQSIDNRVLVGVC | 0.241 ± 0.8
VCYLLFFKRSSYKFSINHYC | inactive
YCKQNESVLDPSIDSLRVLP | 0.673 ± 0.26
GMVRRQVTLMSSSDRAI | -1.07 ± 1.1
YDGSVKMGVFCGVRVYAPVS | -0.191 ± 1.1
LDLCTPRSNKTMVNHDINYF | -1.64 ± 0.77
TCSGWTWRQGLLVLSCRMIL | 0.287 ± 0.38
SVDIGYS | 0.586 ± 0.81
LTNKLELNLGASIADSVGNN | -0.89 ± 0.49
FVVESVKVNRSLACF | -0.205 ± 0.45
THYNVGLINNIINNLILVYI | 4.52 ± 0.12
YYIALWVVGHMGYIDGCTSC | 2.45 ± 0.1
